Test results taken from article PMC8983682 (Nature Communications, 2022).

Target: full-length N1-CA09-WT, membrane-anchored, C-terminal myc tag (Influenza A virus A/California/07/2009 …, UniProt C7FH46, strain)
Assay: flow cytometry on cells
Conditions: one partner purified

B1: CD6 IgG (antibody, V domains shown)
VH: QVKLQESGGGLVQPKGSLKLSCAASGFTFNTYAMNWVRQAPGKGLEWVARIRSKSNNYATFYADSVKDRFTISRDDSQSMLYLQMHNLKTDDTAMYYCVRPSIYYYASGYLDVWGAGTTVTVSS
VL: QIVLSQSPAILSASPGEKVTMTCRTSSSVSYMHWYQQKPGSSPKPWIYATSNLASGVPFRFSGSGSGTSYSLTISRVEAEDAATYYCQQWNSNPPTFGGGTKLEIK
notes: copies: 2 + 2
B1: binds.
